The text below walks through data of patent US20190185531A1 (published 2019).

For orientation: Ki means a dissociation constant, usually derived from enzyme kinetics or from competition with a known ligand. A higher Ki goes with weaker binding.

The target in experiment [1] is T1, human Bfl-1 (c-myc-tagged) (human, UniProt Q16548 1-151).
T1 chain: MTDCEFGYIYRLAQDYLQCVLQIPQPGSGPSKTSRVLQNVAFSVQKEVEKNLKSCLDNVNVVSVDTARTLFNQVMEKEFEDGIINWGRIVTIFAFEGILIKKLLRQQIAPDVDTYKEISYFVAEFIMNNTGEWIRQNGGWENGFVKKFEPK
As to the kind of experiment: anisotropy.

The target of experiment [2] is Bcl-xL (c-myc-tagged) (human, UniProt Q07817 1-209). The experiment is described as follows: fluorescence anisotropy competition.
Experiment [3] addresses T2, human Mcl-1 (c-myc-tagged) (human, UniProt Q07820 172-327).
T2 chain: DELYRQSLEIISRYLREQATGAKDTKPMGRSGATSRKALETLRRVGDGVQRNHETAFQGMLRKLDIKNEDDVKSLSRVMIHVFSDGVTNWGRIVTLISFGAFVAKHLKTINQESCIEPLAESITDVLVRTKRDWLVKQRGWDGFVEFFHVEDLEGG
As to the kind of experiment: fluorescence anisotropy competition.

For experiment [4], the target named is Bcl-2 (c-myc-tagged) (human, UniProt P10415 1-217). The experiment is described as follows: fluorescence anisotropy competition. Background: In fluorescence polarisation assays a small probe gives low polarisation when free and higher when bound to something large.
In experiment [5] the target is T3, Bcl-w (c-myc-tagged) (human, UniProt Q92843 1-164).
T3 chain: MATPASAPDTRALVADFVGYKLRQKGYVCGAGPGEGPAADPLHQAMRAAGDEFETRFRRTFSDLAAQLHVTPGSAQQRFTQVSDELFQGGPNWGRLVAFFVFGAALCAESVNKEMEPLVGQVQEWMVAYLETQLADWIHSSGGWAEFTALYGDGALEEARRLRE
As to the kind of experiment: fluorescence anisotropy competition.

The target of experiment [6] is T1, human Bfl-1 (c-myc-tagged). As to the kind of experiment: fluorescence anisotropy competition.
The target in experiment [7] is T1, human Bfl-1 (c-myc-tagged). As to the kind of experiment: fluorescence anisotropy competition.

Bcl-xL (c-myc-tagged), sequence (Q07817 1-209): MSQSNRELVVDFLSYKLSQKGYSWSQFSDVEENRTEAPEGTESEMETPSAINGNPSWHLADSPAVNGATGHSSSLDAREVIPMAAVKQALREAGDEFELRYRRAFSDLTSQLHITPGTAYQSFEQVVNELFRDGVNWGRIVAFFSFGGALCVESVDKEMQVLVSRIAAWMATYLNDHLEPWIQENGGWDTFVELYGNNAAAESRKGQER
Bcl-2 (c-myc-tagged), sequence (P10415 1-217): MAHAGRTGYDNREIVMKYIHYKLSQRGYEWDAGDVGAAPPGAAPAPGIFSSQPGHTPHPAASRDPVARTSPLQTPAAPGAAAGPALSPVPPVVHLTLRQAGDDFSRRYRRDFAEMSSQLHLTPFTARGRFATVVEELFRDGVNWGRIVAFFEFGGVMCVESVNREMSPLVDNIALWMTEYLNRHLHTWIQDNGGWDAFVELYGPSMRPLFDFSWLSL

B1: FS1 (peptide)
peptide: Ac-QWVREIAAGLRLAADNVNAQLER-NH2
Turning to B1, the Ki is 16.4 nM in experiment [1]; 2720 nM in experiment [2]; greater than 5000 nM in experiment [3]; 6940 nM in experiment [4]; 8.88 µM in experiment [5].

B2: PUMA/FS2 chimeric peptide: PUMA with smaller residues at positions G2, D3, A4 and E4 (peptide)
peptide: Ac-QWAREIGAGLRRAADDVNAQVER-NH2
B2 showed a Ki in experiment [6] of 600 nM.

B3: FS3 (peptide)
peptide: Ac-QWIREIAAGLRRFADILNAQVER-NH2
Take B3: the Ki turned out to be 105 nM in experiment [2]; 711 nM in experiment [3]; 2.1 nM in experiment [7]; 2360 nM in experiment [4]; 0.828 µM in experiment [5].

B4: FS2 (peptide)
peptide: Ac-QWVREIAAGLRRAADDVNAQVER-NH2
Turning to B4, the Ki in experiment [6] came to 21 nM; in experiment [2], 7340 nM; in experiment [3], 2580 nM; in experiment [7], 24.8 nM; in experiment [4], 2450 nM; in experiment [5], 7.21 µM.

B5: PUMA/FS2 chimeric peptide: PUMA with larger residues at positions A2 and E2 (peptide)
peptide: Ac-QWVREIAAQLRRMADDLNAQYER-NH2
B5 showed a Ki in experiment [6] of 2.1 nM.

B6: Puma BH3 peptide (23 residues) (peptide)
peptide: Ac-QWAREIGAQLRRMADDLNAQYER-NH2
In the case of B6, the Ki in experiment [6] was determined as 4.8 nM; in experiment [3] it was 2.7 nM; in experiment [7], 5.1 nM; in experiment [5], 0.006 µM.
